Data as given in the supplement of paper PMC9112550, “Optimization of the antimicrobial peptide Bac7 by deep mutational scanning” (BMC Biology, 2022).

Tested on: Escherichia coli TOP10
Assay: shrunken log2 fold change of peptide-encoding DNA abundance (4.5 h post-induction vs induction); higher = less antimicrobial activity (less host growth inhibition)
Conditions: time post-induction: 4.5 h; library: site-saturation at positions 5, 18, 19, 20
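Also: peptides expressed intracellularly from a pBAD plasmid library in pooled LB shake-flask culture, induced with 0.3% L-arabinose, DNA abundance read by NGS, three biological replicates, DESeq2 with apeglm shrinkage.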

Row | Sequence | shrunken log2 fold change
1 | RRIRGRPPRLPRPRPRPESLPRP | 0.595
2 | RRIRARPPRLPRPRPRPWQYPRP | -0.123
3 | RRIRWRPPRLPRPRPRPSITPRP | -0.0237
4 | RRIRCRPPRLPRPRPRPRDRPRP | 0.731
5 | RRIRLRPPRLPRPRPRPWTTPRP | -0.206
6 | RRIRCRPPRLPRPRPRPEKMPRP | 0.0239
7 | RRIRPRPPRLPRPRPRPVPAPRP | 0.361
8 | RRIRDRPPRLPRPRPRPPEAPRP | 0.479
9 | RRIRARPPRLPRPRPRPRISPRP | 0.0223
10 | RRIRRRPPRLPRPRPRPRNAPRP | 0.356
11 | RRIRTRPPRLPRPRPRPMAKPRP | 0.0153
12 | RRIRMRPPRLPRPRPRPPCTPRP | 0.738
13 | RRIRERPPRLPRPRPRPNTCPRP | -1.13
14 | RRIRIRPPRLPRPRPRPDNSPRP | -1.35
15 | RRIRGRPPRLPRPRPRPSVNPRP | 0.2
16 | RRIRGRPPRLPRPRPRPKLSPRP | -0.0523
17 | RRIRWRPPRLPRPRPRPRIAPRP | 0.133
18 | RRIRPRPPRLPRPRPRPEVWPRP | 0.5
19 | RRIRWRPPRLPRPRPRPRSIPRP | -0.006
20 | RRIRKRPPRLPRPRPRPFYRPRP | 0.0824
21 | RRIRTRPPRLPRPRPRPHRWPRP | -0.254
22 | RRIRNRPPRLPRPRPRPISLPRP | -0.0292
23 | RRIRLRPPRLPRPRPRPCGPPRP | -0.107
24 | RRIRDRPPRLPRPRPRPMDVPRP | -0.0846
25 | RRIRPRPPRLPRPRPRPCYLPRP | -0.958

Row | Sequence | shrunken log2 fold change
26 | RRIRNRPPRLPRPRPRPAGDPRP | 0.395
27 | RRIRIRPPRLPRPRPRPNMPPRP | -0.611
28 | RRIRCRPPRLPRPRPRPCEFPRP | -0.0925
29 | RRIRCRPPRLPRPRPRPGGWPRP | 0.656
30 | RRIRKRPPRLPRPRPRPNAFPRP | 0.0186
31 | RRIRPRPPRLPRPRPRPVATPRP | 0.524
32 | RRIRGRPPRLPRPRPRPRHMPRP | 0.57
33 | RRIRSRPPRLPRPRPRPSACPRP | -0.0945
34 | RRIRQRPPRLPRPRPRPMTEPRP | -0.0192
35 | RRIRKRPPRLPRPRPRPDPAPRP | 0.688
36 | RRIRERPPRLPRPRPRPHYPPRP | -0.649
37 | RRIRCRPPRLPRPRPRPNNQPRP | -0.75
38 | RRIRYRPPRLPRPRPRPQWMPRP | -0.19
39 | RRIRSRPPRLPRPRPRPYNNPRP | -0.785
40 | RRIRMRPPRLPRPRPRPRHFPRP | 0.00681
41 | RRIRTRPPRLPRPRPRPIHAPRP | -0.0176
42 | RRIRSRPPRLPRPRPRPRNGPRP | 0.308
43 | RRIRYRPPRLPRPRPRPQLWPRP | 0.0782
44 | RRIRCRPPRLPRPRPRPFKAPRP | -0.713
45 | RRIRYRPPRLPRPRPRPFGCPRP | -0.139
46 | RRIRKRPPRLPRPRPRPQHYPRP | -0.0715
47 | RRIRNRPPRLPRPRPRPLFVPRP | -0.495
48 | RRIRVRPPRLPRPRPRPALRPRP | 0.306
49 | RRIRERPPRLPRPRPRPGLAPRP | 0.178
50 | RRIRMRPPRLPRPRPRPYIMPRP | -0.12

Row | Sequence | shrunken log2 fold change
51 | RRIRWRPPRLPRPRPRPPDFPRP | -0.087
52 | RRIRERPPRLPRPRPRPNFCPRP | 0.00589
53 | RRIRHRPPRLPRPRPRPAYDPRP | -0.265
54 | RRIRVRPPRLPRPRPRPVMDPRP | -0.324
55 | RRIRGRPPRLPRPRPRPCDSPRP | 0.0374
56 | RRIRERPPRLPRPRPRPEYQPRP | 0.00497
57 | RRIRGRPPRLPRPRPRPWAEPRP | 2.19
58 | RRIRMRPPRLPRPRPRPVLYPRP | -0.0553
59 | RRIRHRPPRLPRPRPRPYWWPRP | -0.196
60 | RRIRYRPPRLPRPRPRPGHFPRP | -0.0316
61 | RRIRVRPPRLPRPRPRPWAAPRP | 0.049
62 | RRIRIRPPRLPRPRPRPWTFPRP | 0.0921
63 | RRIRRRPPRLPRPRPRPKKFPRP | -0.205
64 | RRIRLRPPRLPRPRPRPGGTPRP | -0.0425
65 | RRIRKRPPRLPRPRPRPTNTPRP | 1.79
66 | RRIRYRPPRLPRPRPRPLATPRP | -0.378
67 | RRIRNRPPRLPRPRPRPGYMPRP | -0.281
68 | RRIRQRPPRLPRPRPRPRVLPRP | -0.0985
69 | RRIRWRPPRLPRPRPRPAEGPRP | 0.000853
70 | RRIRPRPPRLPRPRPRPWHRPRP | -0.156
71 | RRIRTRPPRLPRPRPRPQDRPRP | -0.0332
72 | RRIRHRPPRLPRPRPRPCIAPRP | -0.46
73 | RRIRNRPPRLPRPRPRPELWPRP | 0.604
74 | RRIRQRPPRLPRPRPRPDNIPRP | -0.00584
75 | RRIRWRPPRLPRPRPRPPDCPRP | -0.259

Row | Sequence | shrunken log2 fold change
76 | RRIRTRPPRLPRPRPRPILIPRP | -0.485
77 | RRIRHRPPRLPRPRPRPQTFPRP | -0.105
78 | RRIRHRPPRLPRPRPRPTYRPRP | -0.0234
79 | RRIRVRPPRLPRPRPRPGRCPRP | 0.627
80 | RRIRLRPPRLPRPRPRPWMEPRP | 0.00489
81 | RRIRARPPRLPRPRPRPPINPRP | -0.192
82 | RRIRHRPPRLPRPRPRPKYDPRP | -0.246
83 | RRIRCRPPRLPRPRPRPRSNPRP | -0.349
84 | RRIRCRPPRLPRPRPRPTKWPRP | -0.121
85 | RRIRERPPRLPRPRPRPLWLPRP | -0.203
86 | RRIRLRPPRLPRPRPRPLKNPRP | -0.295
87 | RRIRQRPPRLPRPRPRPCCWPRP | 0.0955
88 | RRIRGRPPRLPRPRPRPWAVPRP | -0.142
89 | RRIRPRPPRLPRPRPRPLETPRP | 0.151
90 | RRIRIRPPRLPRPRPRPVTAPRP | -0.299
91 | RRIRMRPPRLPRPRPRPERTPRP | 0.00114
92 | RRIRTRPPRLPRPRPRPPADPRP | 0.217
93 | RRIRERPPRLPRPRPRPPTYPRP | -0.168
94 | RRIRNRPPRLPRPRPRPEMMPRP | 0.317
95 | RRIRKRPPRLPRPRPRPTPEPRP | 0.611
96 | RRIRERPPRLPRPRPRPWTHPRP | -0.0081
97 | RRIRMRPPRLPRPRPRPSHTPRP | 0.0597
98 | RRIRYRPPRLPRPRPRPRGHPRP | -0.117
99 | RRIRARPPRLPRPRPRPMMYPRP | -0.134
100 | RRIRCRPPRLPRPRPRPVKQPRP | -0.222

Row | Sequence | shrunken log2 fold change
101 | RRIRARPPRLPRPRPRPDKNPRP | -0.00427
102 | RRIRIRPPRLPRPRPRPGWIPRP | -0.14
103 | RRIRCRPPRLPRPRPRPYWGPRP | -0.427
104 | RRIRHRPPRLPRPRPRPWGMPRP | -0.0998
105 | RRIRHRPPRLPRPRPRPCVTPRP | -0.609
106 | RRIRHRPPRLPRPRPRPCTWPRP | -0.0924
107 | RRIRERPPRLPRPRPRPKVDPRP | 0.0519
108 | RRIRSRPPRLPRPRPRPVWSPRP | 0.0126
109 | RRIRYRPPRLPRPRPRPDAAPRP | 0.294
110 | RRIRTRPPRLPRPRPRPAFDPRP | 0.161
111 | RRIRPRPPRLPRPRPRPETTPRP | -0.0108
112 | RRIRIRPPRLPRPRPRPKGPPRP | -0.14
113 | RRIRKRPPRLPRPRPRPAQVPRP | 0.296
114 | RRIRVRPPRLPRPRPRPWWFPRP | -0.307
115 | RRIRERPPRLPRPRPRPCLPPRP | -0.259
116 | RRIRHRPPRLPRPRPRPKINPRP | -0.817
117 | RRIRCRPPRLPRPRPRPDHSPRP | -0.184
118 | RRIRFRPPRLPRPRPRPHRFPRP | -0.0456
119 | RRIRVRPPRLPRPRPRPCWAPRP | 0.154
120 | RRIRQRPPRLPRPRPRPICIPRP | -0.0334
121 | RRIRSRPPRLPRPRPRPTFKPRP | -0.0617
122 | RRIRWRPPRLPRPRPRPQCEPRP | -0.0451
123 | RRIRFRPPRLPRPRPRPKWVPRP | -0.193
124 | RRIRDRPPRLPRPRPRPAQCPRP | 0.0665
125 | RRIRKRPPRLPRPRPRPVLEPRP | 0.475
